Results on 2 substances are retold here after US6875737.

A value given as a limit tells only on which side of the number the result lay.

The target in the assay is T cell receptor of the murine 2B4 T cell hybridoma. Nature of the assay: cell-based or functional assay.

The substance “KbP-S-MCC (Lys-boroPro coupled through a spacer linker to the N terminus of moth cytochrome C peptide 94-103) (from UniProt P00039 94-103)” gave an IL-2 production in 2B4 cells at 0.4 µM KbP-S-MCC, against the maximum response obtained with the MCC peptide alone greater than 2 fold.
With “Moth cytochrome C peptide MCC 94-103 (from UniProt P00039 94-103)”, the IL-2 production in 2B4 cells: concentration needed for the maximum response, against 0.4 µM KbP-S-MCC (fold higher concentration) is 10.
